Measurements as given in patent publication US20260176254A1, “INHIBITORS OF PROSTATE SPECIFIC MEMBRANE ANTIGEN AND USE THEREOF” (SHANGHAI SINOTAU BIOTECH. CO., LTD, priority 2023, published 2026).

Experiments:
[1] = biological target: T1, recombinant human PSMA (rhPSMA) (Homo sapiens, UniProt Q04609); experiment: Naaladase assay (fluorescence-based Naaladase activity inhibition); format: biochemical; conditions: rhPSMA 0.4 μg/mL, substrate N-Acetyl-Asp-Glu 40 μM, 37° C. one hour
T1 construct: purchased Sino Biological
T1 sequence (Q04609 whole entry): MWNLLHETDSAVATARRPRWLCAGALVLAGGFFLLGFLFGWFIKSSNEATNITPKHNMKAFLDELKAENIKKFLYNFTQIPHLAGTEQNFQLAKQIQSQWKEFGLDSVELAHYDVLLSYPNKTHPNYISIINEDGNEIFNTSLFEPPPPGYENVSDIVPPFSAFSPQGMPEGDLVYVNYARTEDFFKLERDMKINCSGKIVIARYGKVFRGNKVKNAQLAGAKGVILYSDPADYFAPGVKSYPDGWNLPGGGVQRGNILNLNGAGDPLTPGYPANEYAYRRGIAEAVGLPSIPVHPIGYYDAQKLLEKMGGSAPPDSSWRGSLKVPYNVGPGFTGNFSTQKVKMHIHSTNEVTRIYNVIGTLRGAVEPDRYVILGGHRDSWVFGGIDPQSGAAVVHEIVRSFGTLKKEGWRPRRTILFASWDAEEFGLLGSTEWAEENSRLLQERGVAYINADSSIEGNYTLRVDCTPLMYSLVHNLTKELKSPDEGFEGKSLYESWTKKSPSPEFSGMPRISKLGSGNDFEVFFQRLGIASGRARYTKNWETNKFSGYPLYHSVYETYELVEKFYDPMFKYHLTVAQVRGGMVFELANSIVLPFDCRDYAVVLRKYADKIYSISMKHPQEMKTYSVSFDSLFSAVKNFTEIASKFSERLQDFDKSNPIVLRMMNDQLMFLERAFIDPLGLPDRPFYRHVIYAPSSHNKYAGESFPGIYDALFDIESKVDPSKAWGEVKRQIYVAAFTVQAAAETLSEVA
Protocol: Naaladase activity inhibition was determined using a fluorescence-based assay. Briefly, the solution containing the substrate N-Acetyl-Asp-Glu (Sigma-Aldrich) at 40 μM and the compound at concentrations from 0.15 nM to 1000 nM was mixed at equal volume with recombinant human PSMA (rhPSMA, Sino Biological) at 0.4 μg/mL, in assay buffer (50 mM HEPES, 100 mM NaCl, pH 7.5). The enzymatic reaction was proceeded by incubation at 37° C. for one hour and then stopped by heating at 95° C. for 5 minutes. A solution of 15 mM ortho-phthaldialdehyde (Sigma-Aldrich) was added to all vials and incubated for 10 min at ambient temperature. The reaction solutions were loaded onto a 96-well flat clear bottom black microplates (Corning) and read at excitation and emission wavelengths of 330 and 450 nm, respectively, using a microplate reader (Tecan). The data were analyzed by a one-site total binding regression algorithm of GraphPad Prism (GraphPad Software).

[2] = Tissue biodistribution in 22Rv1 tumor mouse model; parameters: species or system mice; conditions: male, nude, in vivo, iv, total radioactivity
From the text: (§1) LnCAP and 22RV1 CDX xenograft tumor models were generated by inoculating 5×10^6 cells/site subcutaneously in male SCID or nude mice (Vital River), respectively. Animals were housed according to IACUC guidance and had accessed to food and water ad libitium. Animals were used for biodistribution study when the tumor dimensions reached around 0.2-0.3 cm^3. […] At each tome point, animals were sacrificed and tissues were collected, weighted, and subjected to radioactivity measurements using gamma counter. Radioactivity in the tissues was presented in % ID/g (percent of injected dose per gram).

[3] = Tissue biodistribution in LnCAP tumor mouse model; parameters: species or system mice; conditions: male, SCID, in vivo, iv, total radioactivity
From the text: as §1

[4] = Tissue biodistribution: Salivary Gland

## O=C(O)CC[C@H](NC(=O)N[C@@H](CCCCNC(=O)C(Cc1ccc2ccccc2c1)Nc1nnc(C23CCC(CNC(=O)CN4CCN(CC(=O)O)CCN(CC(=O)O)CCN(CC(=O)O)CC4)(CC2)CC3)o1)C(=O)O)C(=O)O (single isomer, unassigned) [E17]
[1]
  IC50: 3.5 nM

## O=C(O)CC[C@H](NC(=O)N[C@@H](CCCCNC(=O)C(Cc1ccc2ccccc2c1)Nc1nnc(C23CCC(CNC(=O)CN4CCN(CC(=O)O)CCN(CC(=O)O)CCN(CC(=O)O)CC4)(CC2)CC3)o1)C(=O)O)C(=O)O (single isomer, unassigned) [E18]
[1]
  IC50: 3.7 nM

## O=C(O)CCC[C@H](NC(=O)N[C@@H](CCCCNC(=O)[C@H](Cc1c2ccccc2cc2ccccc12)Nc1c(NC23CCC(c4nnc(CN5CCN(CC(=O)O)CCN(CC(=O)O)CCN(CC(=O)O)CC5)o4)(CC2)CC3)c(=O)c1=O)C(=O)O)C(=O)O [[^177Lu]Lu-E7, metal not drawn]
[2]
  tissue uptake dose at 2 h: 5.17 ± 0.12 %ID
  tissue uptake dose at 6 h: 1.71 ± 0.03 %ID
  tissue uptake dose at 24 h: 1.36 ± 0.04 %ID
  tissue uptake dose at 72 h: 1.29 ± 0.06 %ID
  tissue uptake dose at 168 h: 0.23 ± 0.02 %ID
[2]; Tissue biodistribution: Blood
  tissue uptake at 2 h: 0.23 ± 0.05 %ID/g
  tissue uptake at 6 h: 0.04 %ID/g
  tissue uptake at 24 h: 0.02 %ID/g
  tissue uptake at 72 h: 0.02 %ID/g
  tissue uptake at 168 h: 0.02 ± 0.01 %ID/g
[2]; Tissue biodistribution: Bone
  tissue uptake at 2 h: 0.3 ± 0.02 %ID/g
  tissue uptake at 6 h: 0.28 ± 0.05 %ID/g
  tissue uptake at 24 h: 0.26 ± 0.03 %ID/g
  tissue uptake at 72 h: 0.26 ± 0.06 %ID/g
  tissue uptake at 168 h: 0.29 ± 0.1 %ID/g
[2]; Tissue biodistribution: Heart
  tissue uptake at 2 h: 0.15 ± 0.02 %ID/g
  tissue uptake at 6 h: 0.06 ± 0.01 %ID/g
  tissue uptake at 24 h: 0.05 %ID/g
  tissue uptake at 72 h: 0.05 ± 0.01 %ID/g
  tissue uptake at 168 h: 0.07 ± 0.01 %ID/g
[2]; Tissue biodistribution: Kidney
  tissue uptake at 2 h: 15.2 ± 5.3 %ID/g
  tissue uptake at 6 h: 8.27 ± 2.15 %ID/g
  tissue uptake at 24 h: 6.73 ± 0.66 %ID/g
  tissue uptake at 72 h: 2.88 ± 1.02 %ID/g
  tissue uptake at 168 h: 0.95 ± 0.16 %ID/g
[2]; Tissue biodistribution: Liver
  tissue uptake at 2 h: 0.18 ± 0.02 %ID/g
  tissue uptake at 6 h: 0.11 ± 0.01 %ID/g
  tissue uptake at 24 h: 0.11 ± 0.01 %ID/g
  tissue uptake at 72 h: 0.12 ± 0.02 %ID/g
  tissue uptake at 168 h: 0.11 ± 0.02 %ID/g
[2]; Tissue biodistribution: Lung
  tissue uptake at 2 h: 0.41 ± 0.08 %ID/g
  tissue uptake at 6 h: 0.12 ± 0.02 %ID/g
  tissue uptake at 24 h: 0.1 %ID/g
  tissue uptake at 72 h: 0.07 ± 0.01 %ID/g
  tissue uptake at 168 h: 0.06 ± 0.01 %ID/g
[2]; Tissue biodistribution: Muscle
  tissue uptake at 2 h: 0.1 ± 0.02 %ID/g
  tissue uptake at 6 h: 0.04 ± 0.02 %ID/g
  tissue uptake at 24 h: 0.02 %ID/g
  tissue uptake at 72 h: 0.02 %ID/g
  tissue uptake at 168 h: 0.02 %ID/g
[2]; [4]
  tissue uptake at 2 h: 0.16 ± 0.01 %ID/g
  tissue uptake at 6 h: 0.07 ± 0.01 %ID/g
  tissue uptake at 24 h: 0.08 %ID/g
  tissue uptake at 72 h: 0.06 ± 0.01 %ID/g
  tissue uptake at 168 h: 0.06 ± 0.02 %ID/g
[2]; Tissue biodistribution: Spleen
  tissue uptake at 2 h: 0.29 ± 0.03 %ID/g
  tissue uptake at 6 h: 0.12 ± 0.03 %ID/g
  tissue uptake at 24 h: 0.13 %ID/g
  tissue uptake at 72 h: 0.12 ± 0.01 %ID/g
  tissue uptake at 168 h: 0.15 ± 0.02 %ID/g
[2]; Tissue biodistribution: Tumor
  tissue uptake at 2 h: 15.6 ± 4.67 %ID/g
  tissue uptake at 6 h: 15.6 ± 2.01 %ID/g
  tissue uptake at 24 h: 17.9 ± 0.87 %ID/g
  tissue uptake at 72 h: 12.1 ± 1.94 %ID/g
  tissue uptake at 168 h: 4.04 ± 0.66 %ID/g
[2]; Tumor/Blood
  tissue to tissue ratio at 2 h: 70.2 ± 30
  tissue to tissue ratio at 6 h: 425 ± 28
  tissue to tissue ratio at 24 h: 848 ± 107
  tissue to tissue ratio at 72 h: 737 ± 174
  tissue to tissue ratio at 168 h: 345 ± 220
[2]; Tumor/Bone
  tissue to tissue ratio at 2 h: 52.9 ± 18.6
  tissue to tissue ratio at 6 h: 57.4 ± 17.9
  tissue to tissue ratio at 24 h: 70 ± 5.18
  tissue to tissue ratio at 72 h: 47.8 ± 16.4
  tissue to tissue ratio at 168 h: 15.6 ± 6.16
[2]; Tumor/Kidney
  tissue to tissue ratio at 2 h: 1.05 ± 0.32
  tissue to tissue ratio at 6 h: 1.99 ± 0.69
  tissue to tissue ratio at 24 h: 2.67 ± 0.15
  tissue to tissue ratio at 72 h: 4.48 ± 1.26
  tissue to tissue ratio at 168 h: 4.23 ± 0.07

## O=C(O)CC[C@H](NC(=O)N[C@@H](CCCCNC(=O)[C@H](Cc1ccc2ccccc2c1)NC(=O)[C@H]1CC[C@H](CNC(=O)CN2CCN(CC(=O)O)CCN(CC(=O)O)CCN(CC(=O)O)CC2)CC1)C(=O)O)C(=O)O [[^177Lu]Lu-PSMA-617, metal not drawn, reference compound]
[3]
  tissue uptake dose at 2 h: 8.53 ± 0.64 %ID
  tissue uptake dose at 6 h: 3.71 ± 1.76 %ID
  tissue uptake dose at 24 h: 4.44 ± 3.53 %ID
  tissue uptake dose at 72 h: 1.03 ± 0.18 %ID
  tissue uptake dose at 168 h: 0.73 ± 0.03 %ID
[3]; Tissue biodistribution: Blood
  tissue uptake at 2 h: 0.38 ± 0.05 %ID/g
  tissue uptake at 6 h: 0.08 ± 0.04 %ID/g
  tissue uptake at 24 h: 0.03 ± 0.01 %ID/g
[3]; Tissue biodistribution: Bone
  tissue uptake at 6 h: 0.2 ± 0.01 %ID/g
[3]; Tissue biodistribution: Gland
  tissue uptake at 2 h: 0.56 ± 0.04 %ID/g
  tissue uptake at 24 h: 0.07 %ID/g
  tissue uptake at 72 h: 0.06 %ID/g
  tissue uptake at 168 h: 0.06 ± 0.01 %ID/g
[3]; Tissue biodistribution: Heart
  tissue uptake at 24 h: 0.06 ± 0.02 %ID/g
  tissue uptake at 72 h: 0.06 ± 0.01 %ID/g
  tissue uptake at 168 h: 0.07 %ID/g
[3]; Tissue biodistribution: Kidney
  tissue uptake at 2 h: 66.9 ± 96.1 %ID/g
  tissue uptake at 6 h: 45.6 ± 37.1 %ID/g
  tissue uptake at 24 h: 3.25 ± 1.04 %ID/g
  tissue uptake at 72 h: 0.96 ± 0.33 %ID/g
[3]; Tissue biodistribution: Liver
  tissue uptake at 2 h: 0.21 ± 0.03 %ID/g
  tissue uptake at 6 h: 0.11 ± 0.04 %ID/g
  tissue uptake at 24 h: 0.07 ± 0.02 %ID/g
  tissue uptake at 72 h: 0.06 ± 0.01 %ID/g
  tissue uptake at 168 h: 0.04 ± 0.01 %ID/g
[3]; Tissue biodistribution: Lung
  tissue uptake at 2 h: 0.91 ± 0.06 %ID/g
  tissue uptake at 24 h: 0.09 ± 0.02 %ID/g
  tissue uptake at 72 h: 0.05 ± 0.01 %ID/g
  tissue uptake at 168 h: 0.05 ± 0.01 %ID/g
[3]; Tissue biodistribution: Muscle
  tissue uptake at 6 h: 0.08 ± 0.02 %ID/g
  tissue uptake at 168 h: 0.03 ± 0.02 %ID/g
[3]; Tissue biodistribution: Spleen
  tissue uptake at 2 h: 0.7 ± 0.21 %ID/g
  tissue uptake at 6 h: 0.36 ± 0.04 %ID/g
[3]; Tissue biodistribution: Tumor
  tissue uptake at 2 h: 30.2 ± 5.26 %ID/g
  tissue uptake at 6 h: 27.4 ± 7.91 %ID/g
  tissue uptake at 24 h: 19.8 ± 4.66 %ID/g
  tissue uptake at 72 h: 11.9 ± 1.2 %ID/g
  tissue uptake at 168 h: 4.74 ± 1.95 %ID/g
[2]
  tissue uptake dose at 2 h: 4.15 ± 0.06 %ID
  tissue uptake dose at 24 h: 1.21 ± 0.03 %ID
[2]; Tissue biodistribution: Blood
  tissue uptake at 2 h: 0.08 ± 0.03 %ID/g
  tissue uptake at 6 h: 0.03 ± 0.01 %ID/g
[2]; Tissue biodistribution: Bone
  tissue uptake at 24 h: 0.11 ± 0.03 %ID/g
[2]; Tissue biodistribution: Heart
  tissue uptake at 2 h: 0.1 ± 0.02 %ID/g
  tissue uptake at 6 h: 0.06 ± 0.01 %ID/g
  tissue uptake at 24 h: 0.05 ± 0.01 %ID/g
  tissue uptake at 72 h: 0.05 ± 0.01 %ID/g
  tissue uptake at 168 h: 0.06 ± 0.01 %ID/g
[2]; Tissue biodistribution: Kidney
  tissue uptake at 2 h: 53 ± 27.4 %ID/g
  tissue uptake at 6 h: 12.3 ± 6.38 %ID/g
  tissue uptake at 24 h: 1.35 ± 0.48 %ID/g
  tissue uptake at 168 h: 0.08 ± 0.03 %ID/g
[2]; Tissue biodistribution: Liver
  tissue uptake at 2 h: 0.09 ± 0.02 %ID/g
  tissue uptake at 6 h: 0.08 ± 0.02 %ID/g
  tissue uptake at 24 h: 0.05 ± 0.01 %ID/g
  tissue uptake at 72 h: 0.04 ± 0.01 %ID/g
  tissue uptake at 168 h: 0.03 ± 0.01 %ID/g
[2]; Tissue biodistribution: Lung
  tissue uptake at 2 h: 0.29 ± 0.05 %ID/g
  tissue uptake at 24 h: 0.06 ± 0.01 %ID/g
  tissue uptake at 72 h: 0.05 ± 0.01 %ID/g
  tissue uptake at 168 h: 0.05 %ID/g
[2]; Tissue biodistribution: Muscle
  tissue uptake at 2 h: 0.09 ± 0.03 %ID/g
  tissue uptake at 6 h: 0.05 ± 0.02 %ID/g
[2]; [4]
  tissue uptake at 6 h: 0.1 ± 0.02 %ID/g
  tissue uptake at 24 h: 0.06 ± 0.01 %ID/g
  tissue uptake at 72 h: 0.05 ± 0.02 %ID/g
  tissue uptake at 168 h: 0.05 ± 0.01 %ID/g
[2]; Tissue biodistribution: Spleen
  tissue uptake at 2 h: 0.78 ± 0.11 %ID/g
  tissue uptake at 72 h: 0.11 ± 0.04 %ID/g
  tissue uptake at 168 h: 0.09 ± 0.03 %ID/g
[2]; Tissue biodistribution: Tumor
  tissue uptake at 2 h: 11.4 ± 2.27 %ID/g
  tissue uptake at 6 h: 12.6 ± 3.23 %ID/g
  tissue uptake at 24 h: 9.84 ± 1.45 %ID/g
  tissue uptake at 72 h: 5.57 ± 0.6 %ID/g
  tissue uptake at 168 h: 0.96 ± 0.5 %ID/g
